The values that follow come from US20210388087A1 (Chugai, published 2021).

T1: Human CD3eg linker (human)
T1 construct: single-chain construct; also called recombinant human CD3
T1 chain: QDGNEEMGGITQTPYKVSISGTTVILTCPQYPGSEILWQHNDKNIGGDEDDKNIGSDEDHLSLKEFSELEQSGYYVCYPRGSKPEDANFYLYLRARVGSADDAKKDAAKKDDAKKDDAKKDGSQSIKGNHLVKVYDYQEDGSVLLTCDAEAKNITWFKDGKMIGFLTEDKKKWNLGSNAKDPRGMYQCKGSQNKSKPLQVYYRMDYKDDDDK

B1: dBBDu183H A100fY/dBBDu072L (antibody, name in Kabat numbering, V domains shown)
VH: QVQLVESGGGLVQPGRSLRLSCAASGFTFSNAWMHWVRQAPGKGLEWVAQIKDKGNAYAAYYAPSVKGRFTISRDDSKNSIYLQMNSLKTEDTAVYYCHYVHYASASTVLPYFGVDAWGQGTTVTVSS
VL: DIVMTQSPLSLPVTPGEPASISCQASQELVHMNRNTYLHWYQQKPGQAPRLLIYKVSNRFPGVPDRFSGSGSGTDFTLKISRVEAEDVGVYYCAQGTSVPFTFGQGTKLEIK
B2: dBBDu183H D101R/dBBDu072L (antibody, name in Kabat numbering, V domains shown)
VH: B1 VH with Y112A, D116R
VL: B1 VL
B3: dBBDu183H A102E/dBBDu072L (antibody, name in Kabat numbering, V domains shown)
VH: B1 VH with Y112A, A117E
VL: B1 VL
B4: dBBDu183H D101G/dBBDu072L (antibody, name in Kabat numbering, V domains shown)
VH: B1 VH with Y112A, D116G
VL: B1 VL
B5: dBBDu183H A102D/dBBDu072L (antibody, name in Kabat numbering, V domains shown)
VH: B1 VH with Y112A, A117D
VL: B1 VL
B6: dBBDu183H F100gG/dBBDu072L (antibody, name in Kabat numbering, V domains shown)
VH: B1 VH with Y112A, F113G
VL: B1 VL
B7: dBBDu183H D101E/dBBDu072L (antibody, name in Kabat numbering, V domains shown)
VH: B1 VH with Y112A, D116E
VL: B1 VL
B8: dBBDu183H A102T/dBBDu072L (antibody, name in Kabat numbering, V domains shown)
VH: B1 VH with Y112A, A117T
VL: B1 VL
B9: dBBDu183H D101N/dBBDu072L (antibody, name in Kabat numbering, V domains shown)
VH: B1 VH with Y112A, D116N
VL: B1 VL
B10: dBBDu183H A102R/dBBDu072L (antibody, name in Kabat numbering, V domains shown)
VH: B1 VH with Y112A, A117R
VL: B1 VL
B11: dBBDu183H D101K/dBBDu072L (antibody, name in Kabat numbering, V domains shown)
VH: B1 VH with Y112A, D116K
VL: B1 VL
B12: dBBDu183H A102N/dBBDu072L (antibody, name in Kabat numbering, V domains shown)
VH: B1 VH with Y112A, A117N
VL: B1 VL
B13: dBBDu183H A102V/dBBDu072L (antibody, name in Kabat numbering, V domains shown)
VH: B1 VH with Y112A, A117V
VL: B1 VL
B14: dBBDu183H D101F/dBBDu072L (antibody, name in Kabat numbering, V domains shown)
VH: B1 VH with Y112A, D116F
VL: B1 VL
B15: dBBDu183H D101W/dBBDu072L (antibody, name in Kabat numbering, V domains shown)
VH: B1 VH with Y112A, D116W
VL: B1 VL
B16: dBBDu183H D101T/dBBDu072L (antibody, name in Kabat numbering, V domains shown)
VH: B1 VH with Y112A, D116T
VL: B1 VL
B17: dBBDu183H A102Q/dBBDu072L (antibody, name in Kabat numbering, V domains shown)
VH: B1 VH with Y112A, A117Q
VL: B1 VL
B18: dBBDu183H F100gE/dBBDu072L (antibody, name in Kabat numbering, V domains shown)
VH: B1 VH with Y112A, F113E
VL: B1 VL
B19: dBBDu183H A102K/dBBDu072L (antibody, name in Kabat numbering, V domains shown)
VH: B1 VH with Y112A, A117K
VL: B1 VL
B20: dBBDu183H D101Y/dBBDu072L (antibody, name in Kabat numbering, V domains shown)
VH: B1 VH with Y112A, D116Y
VL: B1 VL
B21: dBBDu183H A102W/dBBDu072L (antibody, name in Kabat numbering, V domains shown)
VH: B1 VH with Y112A, A117W
VL: B1 VL
B22: dBBDu183H D101S/dBBDu072L (antibody, name in Kabat numbering, V domains shown)
VH: B1 VH with Y112A, D116S
VL: B1 VL
B23: dBBDu183H A102G/dBBDu072L (antibody, name in Kabat numbering, V domains shown)
VH: B1 VH with Y112A, A117G
VL: B1 VL
B24: dBBDu183H A102Y/dBBDu072L (antibody, name in Kabat numbering, V domains shown)
VH: B1 VH with Y112A, A117Y
VL: B1 VL
B25: dBBDu183H A102S/dBBDu072L (antibody, name in Kabat numbering, V domains shown)
VH: B1 VH with Y112A, A117S
VL: B1 VL
B26: dBBDu183H A102H/dBBDu072L (antibody, name in Kabat numbering, V domains shown)
VH: B1 VH with Y112A, A117H
VL: B1 VL
B27: dBBDu183H D101H/dBBDu072L (antibody, name in Kabat numbering, V domains shown)
VH: B1 VH with Y112A, D116H
VL: B1 VL
B28: dBBDu183H D101V/dBBDu072L (antibody, name in Kabat numbering, V domains shown)
VH: B1 VH with Y112A, D116V
VL: B1 VL
B29: dBBDu183H A102F/dBBDu072L (antibody, name in Kabat numbering, V domains shown)
VH: B1 VH with Y112A, A117F
VL: B1 VL
B30: dBBDu183H D101Q/dBBDu072L (antibody, name in Kabat numbering, V domains shown)
VH: B1 VH with Y112A, D116Q
VL: B1 VL
B31: dBBDu183H F100gD/dBBDu072L (antibody, name in Kabat numbering, V domains shown)
VH: B1 VH with Y112A, F113D
VL: B1 VL

Where a chain is given by its changes, count along the chain named. Numbers in names are those of the source.

This test concerns the target T1, Human CD3eg linker. The test is described as follows: SPR, vs unmutated H183/L072.
As for B1, the “fold change of affinity” value was 1.5 fold. Take B2: the “fold change of affinity” value was found to be 0 fold. Regarding B3, the “fold change of affinity” value amounted to 1.1 fold. With B4, the “fold change of affinity” value was found to be 0.4 fold. Next, B5: 1.3 fold; B6: 1.2 fold. Next, B7: 0 fold.

As to B8, the “fold change of affinity” value stood at 0.5 fold.

In the case of B9, the “fold change of affinity” value turned out to be 1.1 fold. As for B10, the “fold change of affinity” value is 1 fold. Take B11: the “fold change of affinity” value turned out to be 0 fold. For B12, the “fold change of affinity” value came to 1.5 fold. For the molecule B13, the “fold change of affinity” value was 1 fold. In the case of B14, the “fold change of affinity” value is 2.5 fold. B15: the “fold change of affinity” value was determined as 0 fold.

As for B16, the “fold change of affinity” value came to 0.2 fold.

With B17, the “fold change of affinity” value turned out to be 1.3 fold.

On to B18, for which the “fold change of affinity” value is 0.5 fold. With B19, the “fold change of affinity” value worked out at 1.5 fold. As for B20, the “fold change of affinity” value came out at 0 fold. Regarding B21, the “fold change of affinity” value is 3.3 fold. In the case of B22, the “fold change of affinity” value came to 0.6 fold. B23: the “fold change of affinity” value is 1 fold.

In the case of B24, the “fold change of affinity” value amounted to 2.5 fold. Regarding B25, the “fold change of affinity” value was found to be 1.9 fold. With B26, the “fold change of affinity” value turned out to be 3.6 fold. As to B27, the “fold change of affinity” value was found to be 0.4 fold. For the molecule B28, the “fold change of affinity” value was 0.5 fold. Then B29, with 2 fold; and B30, with 0 fold. Next, B31: 0.3 fold.
